# From the supplement of paper PMC10567573
# ± gives the standard deviation.
# Assay: protein stability index of a GFP-peptide fusion (GPS, HEK-293T) (PSI 1-6); higher = more stable
# [1] = treatment: DMSO, c terminus: a fixed tail appended
# [2] = treatment: MLN4924 1 uM, 8 h, c terminus: a fixed tail appended
# 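Further: 24-mer peptide tiles fused after GFP, lentivirally expressed, FACS-sorted into six equal bins by GFP/DsRed ratio, decoded by Illumina sequencing, PSI is the read-weighted mean bin number.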
Sequence,protein stability index [1],protein stability index [2],"protein stability index (treatment: DMSO, c terminus: native)","protein stability index (treatment: MLN4924 1 uM, 8 h, c terminus: native)"
NSVTAGDYSRPLHISTFINELDSG [TSN],3.54 ± 0.19,3.71 ± 0.18,,
PNGVQLSPAEDFVLVAETTMARIR [APMAP],3.21 ± 0.21,3.5 ± 0.22,,
MGTSHGITRPSPRRSNSPDKFKRP [CCDC6],4.71 ± 0.087,4.89 ± 0.11,,
EAIPILRAALKLEPSNKTIHAELS [FKBP8],2.49 ± 0.32,2.65 ± 0.14,,
SDAEAVSTRWEVIAEDGTKEIESQ [TAF7L],5.42 ± 0.12,5.48 ± 0.31,,
VEKLLREEAEGARWTSYRFSRVCR [TRIM35],2.89 ± 0.28,3.22 ± 0.2,,
LPREPGDSAQFTKALAIILHLLYL [FEM1A],2.16 ± 0.12,2.23 ± 0.12,,
LNTRSQAPLLRWVLTLSFLVATVA [HMOX1],2.33 ± 0.46,2.15 ± 0.31,,
AAQNCRKRKLDTILNLERDVEDLQ [NFE2L1],4.09 ± 0.44,4.62 ± 0.27,,
PKQLYFSARQGELQKVLLMLVDGI [EHMT1],2.66 ± 0.48,2.35 ± 0.58,,
EESEPGTLVGNVAQDLGLKMTDLL [PCDHGC5],4.34 ± 0.081,4.29 ± 0.55,,
KKQLADETLLKVDLENRCQSLTED [LMNB1],5.13 ± 0.23,5.31 ± 0.076,,
ILENSSQKENVFKCDSLKEECIPE [FAN1],4.68 ± 0.37,4.95 ± 0.09,,
LPQETNLTLKVCKPQAPQKLDPTL,3.58 ± 0.36,3.91 ± 0.49,,
VDDKFGTGTKKVTRILDGGNPFLD [PSD2],4.18 ± 0.051,4.23 ± 0.25,,
ALCELLEKETQIIASIGRHRYIAY [IQUB],2.25 ± 0.3,2.16 ± 0.24,,
AANKAVKCAEVIIPLLSSVNVSDR [ANKRD44],2.9 ± 0.27,2.98 ± 0.23,,
ICIMDAENITTVSVIKDHHTRSIT [WDR88],2.34 ± 0.31,2.18 ± 0.24,,
EDILNDPSQSEVMGEPHLMVEYKL [POMP],3.7 ± 0.17,3.72 ± 0.18,,
PMVARYIRINPQSWFDNGSICMRM [CPXM2],2.82 ± 1.1,1.95 ± 0.38,,
PCYSRQFITSCPCWLEILLNNPR [SMAD6],,,2.92 ± 0.28,2.77 ± 0.42
RRSTTDLRGTQFDYERGKGESTED [ZSWIM9],5.57 ± 0.17,5.53 ± 0.15,,

Sequence,protein stability index [1],protein stability index [2],"protein stability index (treatment: DMSO, c terminus: native)","protein stability index (treatment: MLN4924 1 uM, 8 h, c terminus: native)"
SIHCLGPIKLELLEPKANLQAALQ [VPS39],2.61 ± 0.34,2.45 ± 0.36,,
SFMPLVIKVTSATSVNLGILTADL [SLC35F2],2.7 ± 1,2.87 ± 0.49,,
DRYIAICNPLRYSVLMGHGVCMGL [OR10K2],2.54 ± 0.27,2.43 ± 0.43,,
YQYLHYALFKANRLEKAVAAAYTF [P3H4],2.22 ± 0.17,2.55 ± 0.25,,
TVDIQNPDITSSRYRGLPAPGPSP [WAS],4.49 ± 0.24,4.7 ± 0.18,,
MFRSKRSGLVRRLWRSRVVPDREE [SMAD6],2.67 ± 0.17,3.24 ± 0.5,,
EKEVLRRERAVEWRERAVEKRERA [ZBED2],4.93 ± 0.44,4.95 ± 0.27,,
PVPATAPSPAPAVAAAAAATTAAT [SNAP91],5.32 ± 0.16,5.25 ± 0.097,,
AEHEITELTATFTKFDRDGNRILD [PKD2L1],4.76 ± 0.24,4.95 ± 0.19,,
QWLKDKILSEEGRRQQAKLKELQA [KCNAB2],3.13 ± 0.56,3.32 ± 0.13,,
LRFLYSDEVQIGPETVMTTLYTAK [BTBD1],2.48 ± 0.38,1.99 ± 0.24,,
SEALASTRILKHSPESSRGQCGEN [GLIPR2],5.29 ± 0.21,4.93 ± 0.25,,
MAAGSTTLHAVEKLQVRLATKTEP [ELOA2],3.62 ± 0.23,3.61 ± 0.36,,
YFQSVTSNRWLMVKIFLILIVFFI [STX5],2.85 ± 0.6,2.93 ± 0.49,,
PGRGHTHAAQGGPLLCPGCQGQPQ [ELOA2],4.38 ± 0.26,4.47 ± 0.14,,
LKPRPEPPKKPSNWRRKHEEFIAT [ZC2HC1A],3.47 ± 0.22,3.56 ± 0.17,,
EVTDKEQEFAARAAKQLEYQQLED [EPB41L3],5.65 ± 0.27,5.62 ± 0.33,,
LCYPPAKGCLKLCRRCYDWIHRPG [SPRY1],2.06 ± 0.094,2.27 ± 0.33,,
VPDREEGGSGGGGGGDEDGSLGSR [SMAD6],5.59 ± 0.24,5.33 ± 0.3,,
SVGHNNLIPLANTGIVNHTHSRMG [CARM1],3.47 ± 0.32,3.66 ± 0.2,,
SKRNIKKGAVPRSIPNLAEVKKKG [HDAC6],4.26 ± 0.47,4.46 ± 0.44,,
TPNASSPGNPTALANGTVQAPKQK [LPCAT4],5.31 ± 0.13,5.43 ± 0.15,,
